Reference: PMC2714593, “Insights into the role of Val45 and Gln182 of Escherichia coli MutY in DNA substrate binding and specificity”

Key:
[1] = biological target: T1, EcMutY Q182L (Escherichia coli, UniProt P17802 1-350, Q182L); assay: EMSA; 20 mM Tris-HCl pH 7.6, 80 mM NaCl, 1 mM DTT, 1 mM EDTA, 2.9% glycerol, 20 ng poly dI/dC per 20 ul, 0.09 nM labeled DNA, 30 min at 30 C; 4% PAGE in TBE; conditions: protein: recombinant; label: 5'-32P on X strand; blunt; T/G mismatch at strand 1 position 22
T1 sequence: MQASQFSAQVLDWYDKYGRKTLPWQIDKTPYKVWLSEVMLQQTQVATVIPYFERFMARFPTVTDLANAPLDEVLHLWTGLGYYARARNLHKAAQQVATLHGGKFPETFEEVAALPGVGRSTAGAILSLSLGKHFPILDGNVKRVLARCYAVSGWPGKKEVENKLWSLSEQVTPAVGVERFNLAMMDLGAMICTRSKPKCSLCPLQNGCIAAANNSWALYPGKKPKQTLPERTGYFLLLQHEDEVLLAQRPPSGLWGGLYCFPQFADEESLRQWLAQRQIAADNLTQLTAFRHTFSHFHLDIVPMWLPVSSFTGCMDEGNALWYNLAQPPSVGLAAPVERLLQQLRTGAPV

[2] = biological target: T2, EcMutY V45A (Escherichia coli, UniProt P17802 1-350, V45A); assay: as above; conditions: protein: recombinant; label: 5'-32P on X strand; blunt; T/G mismatch at strand 1 position 22
T2 sequence: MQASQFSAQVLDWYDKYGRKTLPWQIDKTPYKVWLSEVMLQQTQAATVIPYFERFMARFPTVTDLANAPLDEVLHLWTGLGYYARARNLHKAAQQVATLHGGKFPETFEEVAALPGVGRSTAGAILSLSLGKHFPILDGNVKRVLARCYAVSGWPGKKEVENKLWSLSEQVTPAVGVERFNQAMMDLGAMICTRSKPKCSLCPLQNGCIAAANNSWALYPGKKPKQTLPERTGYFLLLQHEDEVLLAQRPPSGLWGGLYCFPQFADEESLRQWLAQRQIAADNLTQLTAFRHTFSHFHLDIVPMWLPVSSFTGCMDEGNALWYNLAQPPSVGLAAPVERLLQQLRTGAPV

B1: T/G 44-mer (dsDNA)
DNA 1: AATTGGGCTCCTCGAGGAATTTGCCTTCTGCAGGCATGCCCCGG
DNA 2: CCGGGGCATGCCTGCAGAAGGCGAATTCCTCGAGGAGCCCAATT
B1 was tested, and the Kd [1] was 0.043 ± 0.014 nM and the Kd [2] was 0.011 ± 0.004 nM.
